Here are results for one substance from patent US20260258110A1, “VOLTAGE GATED SODIUM CHANNEL-SPECIFIC PEPTIDE APTAMERS AND USES THEREOF” (The Medical College of Wisconsin, Inc., priority 2023, published 2026).

What all share (assay type): cell-based
The target in one test is T1, hNav1.7 (Homo sapiens, UniProt Q15858).
T1 construct: the Nav1.7 antibody detected full-length Nav1.7 only in HEK1.7 cells
Put plainly: Whole-cell voltage-clamp of INa1.7 in HEK1.7 cells after plasmid transfection. Conditions: preliminary data. The procedure:
The stable expression of each construct was verified by transfection into HEK293 cells stably expressing human wild-type Nav1.7 (HEK1.7 cells), followed by immunoblots (IB). Representative tests for GFPlinker (GFP), 1.7iPAs (1, 2, 3, 4, 6) were shown (FIG. 1H, I). Initial screening experiments by whole-cell voltage-clamp of INa1.7 in HEK1.7 cells, transfected with plasmids encoding nine 1.7iPAs (1.7iPA1-9), were performed to characterize the INa1.7. The presence of 9 different 1.7iPAs in HEK1.7 cells on peak INa1.7 density (3 days after transfection) were summarized in FIG. 1F, in which the data points recorded by at least 2 replicates were combined. […] These experiments thus identified 1.7iPA1 and 1.7iPA4 (both derived from ICL1), as well as 1.7iPA6 (from ICL2), as effective iPAs (>50% INa1.7 inhibition). We next focused on the validation of INa1.7 inhibition and channel kinetics by 1.7iPA1, 4, and 6 on HEK1.7 cells in new experiments. […] The 1.7iPA1 peptide is polyampholytic, enriched with 38.6% positively charged arginine or lysine (17/44), 23% of serine (10/44), 14% acidic residues (6/44); and is highly conserved between rodents and humans (FIG. 2F).
EP recordings were performed, as we described previously with minor modifications at room temperature (22~25° C.) (10, 12), in a blind manner where the electrophysiologist was not aware of the treatment. Patch pipettes 0.9-2.5M2 resistance were formed from borosilicate glass (King Precision Glass Co., Claremont, CA) and fire polished. Recordings were made with an […] amplifier (Molecular Devices, Downingtown, PA). Signals were filtered at 5 kHz and sampled at 20 and 50 kHz (adopted from literature) (13-22) with a Digidata 1440A digitizer and pClamp10 software (Molecular Devices, San Jose, CA). Series resistance (3-5M (2) was monitored before and after the recordings, and data were discarded if the resistance changed by 20%. After achieving the whole-cell recording, capacitance (Cm) and series resistance (Rs) were compensated accordingly.
Sodium channel current (INa) recording in cultured cell lines. Whole-cell voltage-clamp to recording INa was performed in HEK1.7, HEK1.1, HEK1.3, HEK1.6, HEK1.5, HEK1.8, CHO1.8, NG108-15 cells, and F11cells in current-density (I-V) and fast-inactivation voltage protocols. External solution consists of the following (in mM): 110 NaCl, 20 tetraethylammonium-Cl, […]), 0.1 CaCl2, 5 MgCl2, 10 HEPES and 5.56 mM glucose (pH 7.4, 310-315 mosM/L). The internal pipette solution consisted of (in mM): 10 NaCl, 130 CsCl, 5 MgCl2, 5 EGTA, 2.5 Na2+ATP and 10 HEPES (pH 7.2). After formation of a tight seal (maximal leak amplitude <150 pA), membrane resistance and capacitance were determined. The voltage dependence of activation was assessed from holding potential using 50 ms pulses (test-pulse) to a range of test potentials from −100 mV to +50 mV in 5 mV or 10 mV incremental steps with an interval of 5 s. Current density was calculated by normalizing maximal peak currents with cell capacitance. The voltage dependence of steady-state fast inactivation was measured using a two-step protocol. A 500 ms pre-pulse with various potentials ranging from Vhold to +10 mV in 5 or 10 mV incremental steps was used to inactivate the channels. This pre-pulse was immediately followed by a 40 ms test-pulse at 0 mV to determine the remaining fraction of available channels. Inward current measured during the test-pulse to 0 mV was normalized to the cell's maximum test-pulse inward current. To determine the conductance-voltage (I-V) relationships of voltage-dependent activation, the peak current densities during each voltage command step were fitted to a smooth curve with a Boltzmann equation: I=Gmax (V-Erev)/[(1+exp [(V−V50)/k))], which provided the maximum conductance (Gmax). Normalized activation curves were fitted with a Boltzmann equation G/Gmax=1/(1+exp (V50-Vm)/k), where G was calculated as follows: G=I/(Vm−Erev). […]

The target in a further test is T2, human Nav1.8 (Homo sapiens, UniProt Q9Y5Y9, DEL1030-1030/M1713V).
T2 construct: cell line made in house
Kind of test: Whole-cell voltage-clamp of INa1.8 in HEK1.8 stable cells. Conditions: preliminary data, expression in HEK1.8 cells.

For a further test, the system named is BK potassium channels. Kind of test: BK IKv recording in NG108-15 cells.

T1 sequence (Q15858 whole entry): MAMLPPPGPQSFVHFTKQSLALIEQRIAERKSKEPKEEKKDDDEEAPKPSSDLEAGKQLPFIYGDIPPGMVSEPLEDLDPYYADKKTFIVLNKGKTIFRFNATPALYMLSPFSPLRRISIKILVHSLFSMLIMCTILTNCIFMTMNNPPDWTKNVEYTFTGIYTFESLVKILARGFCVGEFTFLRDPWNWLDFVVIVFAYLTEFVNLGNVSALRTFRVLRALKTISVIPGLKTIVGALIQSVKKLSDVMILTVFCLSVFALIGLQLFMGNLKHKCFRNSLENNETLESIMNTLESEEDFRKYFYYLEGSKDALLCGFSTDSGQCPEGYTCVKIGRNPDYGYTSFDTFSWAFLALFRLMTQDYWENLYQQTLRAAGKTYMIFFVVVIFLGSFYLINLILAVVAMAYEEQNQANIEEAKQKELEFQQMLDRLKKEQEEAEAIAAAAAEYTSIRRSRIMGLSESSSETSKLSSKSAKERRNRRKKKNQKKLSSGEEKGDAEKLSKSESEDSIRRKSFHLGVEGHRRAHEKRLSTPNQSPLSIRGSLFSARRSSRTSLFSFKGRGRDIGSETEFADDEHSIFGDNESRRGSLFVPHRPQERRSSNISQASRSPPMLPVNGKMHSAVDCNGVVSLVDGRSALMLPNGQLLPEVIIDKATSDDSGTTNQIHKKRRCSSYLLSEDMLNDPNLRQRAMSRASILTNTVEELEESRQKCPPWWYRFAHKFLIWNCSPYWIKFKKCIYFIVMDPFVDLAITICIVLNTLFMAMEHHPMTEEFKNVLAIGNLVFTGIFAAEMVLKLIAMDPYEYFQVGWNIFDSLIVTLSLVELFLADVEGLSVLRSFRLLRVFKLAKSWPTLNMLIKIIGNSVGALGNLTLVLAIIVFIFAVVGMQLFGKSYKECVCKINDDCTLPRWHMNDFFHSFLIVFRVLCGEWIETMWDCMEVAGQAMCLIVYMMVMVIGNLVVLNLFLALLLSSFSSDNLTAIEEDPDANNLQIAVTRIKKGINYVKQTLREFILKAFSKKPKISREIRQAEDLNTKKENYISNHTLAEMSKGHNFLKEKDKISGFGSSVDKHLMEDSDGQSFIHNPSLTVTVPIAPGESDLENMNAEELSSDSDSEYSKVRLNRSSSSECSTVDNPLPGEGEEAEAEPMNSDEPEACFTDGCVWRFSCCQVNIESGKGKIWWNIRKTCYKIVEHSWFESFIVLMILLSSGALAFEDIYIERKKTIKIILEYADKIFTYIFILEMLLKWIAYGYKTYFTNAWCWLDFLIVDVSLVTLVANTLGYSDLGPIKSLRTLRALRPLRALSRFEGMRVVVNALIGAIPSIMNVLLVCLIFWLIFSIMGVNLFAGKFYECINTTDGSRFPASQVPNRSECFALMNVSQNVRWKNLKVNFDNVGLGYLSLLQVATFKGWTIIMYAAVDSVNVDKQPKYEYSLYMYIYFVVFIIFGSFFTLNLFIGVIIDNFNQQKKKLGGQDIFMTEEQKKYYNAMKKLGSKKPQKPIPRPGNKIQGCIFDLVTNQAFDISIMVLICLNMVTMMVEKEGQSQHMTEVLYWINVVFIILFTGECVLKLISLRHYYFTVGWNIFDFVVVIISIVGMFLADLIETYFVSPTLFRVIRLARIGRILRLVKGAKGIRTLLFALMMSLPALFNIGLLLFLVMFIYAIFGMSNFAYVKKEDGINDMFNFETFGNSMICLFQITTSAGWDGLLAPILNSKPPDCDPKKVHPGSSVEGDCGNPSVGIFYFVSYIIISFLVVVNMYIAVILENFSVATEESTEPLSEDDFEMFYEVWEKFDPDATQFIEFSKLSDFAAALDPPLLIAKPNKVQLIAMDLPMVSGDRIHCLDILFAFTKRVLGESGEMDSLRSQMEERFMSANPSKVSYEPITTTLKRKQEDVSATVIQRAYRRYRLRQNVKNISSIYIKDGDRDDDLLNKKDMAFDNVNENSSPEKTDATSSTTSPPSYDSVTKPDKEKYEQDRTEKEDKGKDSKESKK
T2 sequence (Q9Y5Y9 with tags, fused parts or gaps DEL1030-1030/M1713V): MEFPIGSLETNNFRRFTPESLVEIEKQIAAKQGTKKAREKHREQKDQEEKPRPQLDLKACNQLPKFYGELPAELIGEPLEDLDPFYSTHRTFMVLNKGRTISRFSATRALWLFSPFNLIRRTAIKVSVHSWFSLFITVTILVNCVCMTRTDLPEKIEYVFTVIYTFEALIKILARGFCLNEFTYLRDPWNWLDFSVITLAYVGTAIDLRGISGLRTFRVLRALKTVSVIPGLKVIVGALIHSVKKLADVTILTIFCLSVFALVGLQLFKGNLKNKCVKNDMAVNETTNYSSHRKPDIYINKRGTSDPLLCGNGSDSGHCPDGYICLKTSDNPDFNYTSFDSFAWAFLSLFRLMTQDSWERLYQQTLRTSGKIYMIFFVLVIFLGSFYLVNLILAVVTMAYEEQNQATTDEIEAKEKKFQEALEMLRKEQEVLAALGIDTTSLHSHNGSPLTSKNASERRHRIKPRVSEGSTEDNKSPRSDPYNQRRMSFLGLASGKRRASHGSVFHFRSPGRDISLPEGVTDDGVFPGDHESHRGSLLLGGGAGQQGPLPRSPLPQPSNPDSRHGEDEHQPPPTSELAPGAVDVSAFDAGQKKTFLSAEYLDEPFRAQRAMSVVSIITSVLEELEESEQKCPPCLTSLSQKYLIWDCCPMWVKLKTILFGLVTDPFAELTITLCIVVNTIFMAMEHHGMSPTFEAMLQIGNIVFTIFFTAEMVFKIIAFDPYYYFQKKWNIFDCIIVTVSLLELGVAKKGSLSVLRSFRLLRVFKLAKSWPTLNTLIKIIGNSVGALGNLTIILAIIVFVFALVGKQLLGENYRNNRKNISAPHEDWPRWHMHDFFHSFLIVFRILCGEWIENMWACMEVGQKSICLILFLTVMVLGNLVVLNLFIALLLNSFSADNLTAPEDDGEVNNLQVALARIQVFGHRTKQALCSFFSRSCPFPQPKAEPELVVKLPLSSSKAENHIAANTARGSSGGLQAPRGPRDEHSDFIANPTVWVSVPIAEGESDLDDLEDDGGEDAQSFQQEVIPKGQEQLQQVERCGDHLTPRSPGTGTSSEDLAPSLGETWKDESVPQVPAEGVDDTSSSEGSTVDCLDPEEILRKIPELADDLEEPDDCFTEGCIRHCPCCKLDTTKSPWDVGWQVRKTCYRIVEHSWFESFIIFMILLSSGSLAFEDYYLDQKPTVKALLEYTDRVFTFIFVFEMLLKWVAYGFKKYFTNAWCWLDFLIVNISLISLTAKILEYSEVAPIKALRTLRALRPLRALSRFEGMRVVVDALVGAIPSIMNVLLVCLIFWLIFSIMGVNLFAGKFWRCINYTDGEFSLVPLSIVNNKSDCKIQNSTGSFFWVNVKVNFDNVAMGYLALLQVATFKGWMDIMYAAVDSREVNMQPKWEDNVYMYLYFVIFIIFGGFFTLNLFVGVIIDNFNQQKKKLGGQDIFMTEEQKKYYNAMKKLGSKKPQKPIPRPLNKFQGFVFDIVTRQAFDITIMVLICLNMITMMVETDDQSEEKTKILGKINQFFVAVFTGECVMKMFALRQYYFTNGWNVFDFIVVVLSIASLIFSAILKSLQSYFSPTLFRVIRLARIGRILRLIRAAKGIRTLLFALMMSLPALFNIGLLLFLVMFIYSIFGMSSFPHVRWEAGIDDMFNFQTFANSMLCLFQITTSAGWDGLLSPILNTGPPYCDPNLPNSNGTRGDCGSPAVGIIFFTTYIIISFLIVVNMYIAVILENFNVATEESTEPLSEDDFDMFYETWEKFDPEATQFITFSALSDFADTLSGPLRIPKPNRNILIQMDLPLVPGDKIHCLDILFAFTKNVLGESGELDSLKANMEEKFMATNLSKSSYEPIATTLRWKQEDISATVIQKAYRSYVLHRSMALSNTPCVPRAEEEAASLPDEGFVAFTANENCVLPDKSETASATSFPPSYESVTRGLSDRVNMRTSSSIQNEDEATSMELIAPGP

Regarding “1.7/1.8iPA: disordered polyacidic 38mer from Nav1.7 intracellular loop 2 with AnkG and Pdzd2-I binding domains; dual Nav1.7/1.8 inhibitory peptide aptamer (PGESDLEIMNTEELSSDSDSDYSKEKRNRSSSSECSTV)”, the “effect on INa1.7” value with hNav1.7 (38mer expressed in HEK1.7 cells) is “inhibits”. Besides, in the test with hNav1.7 (HEK1.7 cells), the Nav1.7 voltage-gated activation result is recorded as “possibly desensitized”. Further, the “effect on INa1.8” value in the test with human Nav1.8 was “suppresses”. For the same substance, the “effect on BK IKv” value in the test on BK potassium channels is on record as “No change”.
